From article PMC8560823, “Structural insights into the clustering and activation of Tie2 receptor mediated by Tie2 agonistic antibody” (Nature Communications, 2021)

Assays:
[1] = molecular target: T1, mouse Tie2 Ig3–Fn3 (Mus musculus, UniProt Q02858); assay: BLI; Octet, 30 °C; humanized IgG1s and mouse Tie2; how the humanized IgG1s were loaded is not told (Supplementary Fig. 5f); conditions: both partners purified
T1 construct: mouse Tie2, Ig3–Fn3, residues 349–737; also called mTie2 Ig3–Fn3; mTie2
T1 sequence (Q02858 349-737): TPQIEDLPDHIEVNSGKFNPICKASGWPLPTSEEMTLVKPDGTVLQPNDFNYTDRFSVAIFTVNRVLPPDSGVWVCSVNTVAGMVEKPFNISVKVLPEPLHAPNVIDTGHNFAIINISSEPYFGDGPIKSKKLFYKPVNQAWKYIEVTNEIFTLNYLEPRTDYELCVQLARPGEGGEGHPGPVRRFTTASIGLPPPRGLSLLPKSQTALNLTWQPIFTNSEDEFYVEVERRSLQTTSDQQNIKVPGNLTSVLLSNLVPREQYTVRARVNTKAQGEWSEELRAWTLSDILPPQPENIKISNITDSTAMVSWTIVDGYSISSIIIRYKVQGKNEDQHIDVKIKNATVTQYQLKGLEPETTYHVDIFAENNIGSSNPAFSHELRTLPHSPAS

[2] = molecular target: the molecule itself; assay: cross-linking; engineered disulfide bonds (D682C/N691C) across the Fn3–Fn3' interface; SDS-PAGE with Coomassie blue under reducing and non-reducing conditions
[3] = molecular target: T1, mouse Tie2 Ig3–Fn3; assay: BLI; Octet, 30 °C; mouse hTAAB (10 μg/ml) loaded on anti-mouse IgG Fc capture (AMC) biosensors; 1600 nM mouse Tie2 Ig3–Fn3 in kinetics buffer (0.01% BSA, 0.002% Tween-20, 0.005% NaN3 in PBS); 600 s association, 600 s dissociation; conditions: both partners purified
[4] = molecular target: T2, human Tie2 extracellular domain (hTie2 ECD) (human, UniProt Q02763); assay: SPR; Biacore T200; hTie2 ECD immobilised on CM5 chip by amine coupling (10 mM acetate pH 5.5); antibodies flowed at 0-64 nM, 300 s association, 300 s dissociation, 30 µl/min; HBS-EP+ buffer; 1:1-binding model, global fit; conditions: both partners purified
T2 construct: human Tie2, extracellular domain, residues 23–735 of human Tie2; Host, tags and purification of the ECD are not described; also called Human Tie2 ECD; source: produced in house
T2 sequence (Q02763 23-735): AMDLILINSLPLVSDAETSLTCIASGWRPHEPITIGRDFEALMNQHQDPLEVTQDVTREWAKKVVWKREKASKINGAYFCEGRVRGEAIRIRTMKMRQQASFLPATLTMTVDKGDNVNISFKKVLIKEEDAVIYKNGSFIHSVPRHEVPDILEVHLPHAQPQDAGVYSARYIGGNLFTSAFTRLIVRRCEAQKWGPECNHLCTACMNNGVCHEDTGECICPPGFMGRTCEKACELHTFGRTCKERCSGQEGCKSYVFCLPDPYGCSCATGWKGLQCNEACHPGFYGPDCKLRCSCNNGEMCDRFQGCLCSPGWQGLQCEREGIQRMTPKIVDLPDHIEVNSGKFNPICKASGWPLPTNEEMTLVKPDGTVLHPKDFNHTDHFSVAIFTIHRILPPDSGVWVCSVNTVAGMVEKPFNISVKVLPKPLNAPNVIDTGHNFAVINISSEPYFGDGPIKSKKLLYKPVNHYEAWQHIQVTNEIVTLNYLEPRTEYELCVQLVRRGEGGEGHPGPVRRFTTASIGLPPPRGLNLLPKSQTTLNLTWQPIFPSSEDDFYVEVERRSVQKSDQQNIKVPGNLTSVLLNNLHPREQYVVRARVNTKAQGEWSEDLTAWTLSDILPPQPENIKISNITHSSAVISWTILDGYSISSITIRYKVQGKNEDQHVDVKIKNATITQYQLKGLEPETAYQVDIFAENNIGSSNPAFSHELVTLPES

B1: hzTAAB-H1L1 (antibody, V domains shown)
VH: QVQLVQSGAEVKKPGASVKVSCKASGYSFTSYWMHWVRQAPGQGLEWMGIIHPSDSETRYAQKFQGRVTMTRDTSTSTVYMELSSLRSEDTAVYYCARGLYGNSWGQGTLVTVSS
VL: DIQMTQSPSSLSASVGDRVTITCRASQDIGISLGWYQQKPGKAPKRLIYATSSLQSGVPSRFSGSGSGTEFTLTISSLQPEDFATYYCLQYASSPYTFGQGTKLEIK
Does B1 bind [1]?
Result: no binding (tested: 1600 nM)

B2: hzTAAB-H2L1 (antibody, V domains shown)
VH: QVQLVQSGAEVKKPGASVKVSCKASGYSFTSYWMHWVRQAPGQGLEWMGIIHPSDSETRYAQKFQGRVTMTVDKSTSTVYMELSSLRSEDTAVYYCARGLYGNSWGQGTLVTVSS
VL: DIQMTQSPSSLSASVGDRVTITCRASQDIGISLGWYQQKPGKAPKRLIYATSSLQSGVPSRFSGSGSGTEFTLTISSLQPEDFATYYCLQYASSPYTFGQGTKLEIK
Does B2 bind [1]?
Result: no binding (tested: 1600 nM)

B3: hzTAAB-H1L2 (antibody, V domains shown)
VH: QVQLVQSGAEVKKPGASVKVSCKASGYSFTSYWMHWVRQAPGQGLEWMGIIHPSDSETRYAQKFQGRVTMTRDTSTSTVYMELSSLRSEDTAVYYCARGLYGNSWGQGTLVTVSS
VL: DIQMTQSPSSLSASVGDRVTITCRASQDIGISLNWLQQKPGKAPKRLIYATSSLDSGVPSRFSGSRSGTEFTLTISSLQPEDFATYYCLQYASSPYTFGQGTKLEIK
Does B3 bind [1]?
Result: no binding (tested: 1600 nM)

B4: hzTAAB-H2L2 (antibody, V domains shown)
VH: QVQLVQSGAEVKKPGASVKVSCKASGYSFTSYWMHWVRQAPGQGLEWMGIIHPSDSETRYAQKFQGRVTMTVDKSTSTVYMELSSLRSEDTAVYYCARGLYGNSWGQGTLVTVSS
VL: DIQMTQSPSSLSASVGDRVTITCRASQDIGISLNWLQQKPGKAPKRLIYATSSLDSGVPSRFSGSRSGTEFTLTISSLQPEDFATYYCLQYASSPYTFGQGTKLEIK
Does B4 bind [1]?
Result: no binding (tested: 1600 nM)

B5: hTie2 Ig3–Fn3 D682C/N691C (domain or fragment, human, UniProt Q02763 349-738, looked up)
chain: TPKIVDLPDHIEVNSGKFNPICKASGWPLPTNEEMTLVKPDGTVLHPKDFNHTDHFSVAIFTIHRILPPDSGVWVCSVNTVAGMVEKPFNISVKVLPKPLNAPNVIDTGHNFAVINISSEPYFGDGPIKSKKLLYKPVNHYEAWQHIQVTNEIVTLNYLEPRTEYELCVQLVRRGEGGEGHPGPVRRFTTASIGLPPPRGLNLLPKSQTTLNLTWQPIFPSSEDDFYVEVERRSVQKSDQQNIKVPGNLTSVLLNNLHPREQYVVRARVNTKAQGEWSEDLTAWTLSDILPPQPENIKISNITHSSAVISWTILDGYSISSITIRYKVQGKNECQHVDVKIKCATITQYQLKGLEPETAYQVDIFAENNIGSSNPAFSHELVTLPESQAP
modifications: two intermolecular disulfide bonds between the introduced cysteines 682 and 691
notes: human Tie2, Ig3–Fn3, residues 349–738, with D682C and N691C; Made by overlap extension PCR from the pFuse-hTie2 Ig3–Fn3–hIgG1–Fc construct; also called constitutive Tie2 Ig3–Fn3 dimer; Tie2 dimeric mutant; source: Expi293F, secreted as Fc fusion, purified as for hTie2 Ig3–Fn3 (MabSelect SuRe, Fc removed by thrombin); not shown: Fc (human IgG1), C-terminal, cleaved
Does B5 bind [2]?
Result: binds

B6: human Tie2-activating antibody (hTAAB), mouse IgG1 (antibody, V domains shown)
VH: QVQLQQPGAELVRPGASVKLSCKASGYSFTSYWMNWVKQRPGQGLEWIGMIHPSDSETRLNQKFMDKATLTVDKSSSTAYMQLSSPTSEDSAVYYCARGLYGNSWGQGTLVTVSA
VL: DIQMTQSPSSLSASLGERVSLTCRASQDIGISLNWLQQEPDGTIKRLIYATSSLDSGVPKRFSGSRSGSDYSLTISSLESEDFVDYYCLQYASSPYTFGGGTKLEIK
notes: heavy-chain variable region of hTAAB (clone 3H7; closest germline mIGHV1-61*01); mouse IgG1 heavy-chain constant region; light-chain variable region of hTAAB (clone 3H7; closest germline mIGKV9-120*01); mouse kappa light-chain constant region; Mouse IgG1 from the hybridoma; also called 3H7; mouse hTAAB; source: B-cell hybridoma clone 3H7, serum-free culture supernatant, purified (Protein G); …
What does the source list for B6?
binding result [3]: no binding (tested: 1600 nM); Kd [4]: 4.2 nM; koff [4]: 0.0006 s⁻¹; kon [4]: 140000 M⁻¹ s⁻¹
